Experiment [1] deals with T1, Human CD39 on CHOK1-huCD39-10B6 cells overexpressing CD39 (human, UniProt P49961 1-510).
T1 sequence (looked up): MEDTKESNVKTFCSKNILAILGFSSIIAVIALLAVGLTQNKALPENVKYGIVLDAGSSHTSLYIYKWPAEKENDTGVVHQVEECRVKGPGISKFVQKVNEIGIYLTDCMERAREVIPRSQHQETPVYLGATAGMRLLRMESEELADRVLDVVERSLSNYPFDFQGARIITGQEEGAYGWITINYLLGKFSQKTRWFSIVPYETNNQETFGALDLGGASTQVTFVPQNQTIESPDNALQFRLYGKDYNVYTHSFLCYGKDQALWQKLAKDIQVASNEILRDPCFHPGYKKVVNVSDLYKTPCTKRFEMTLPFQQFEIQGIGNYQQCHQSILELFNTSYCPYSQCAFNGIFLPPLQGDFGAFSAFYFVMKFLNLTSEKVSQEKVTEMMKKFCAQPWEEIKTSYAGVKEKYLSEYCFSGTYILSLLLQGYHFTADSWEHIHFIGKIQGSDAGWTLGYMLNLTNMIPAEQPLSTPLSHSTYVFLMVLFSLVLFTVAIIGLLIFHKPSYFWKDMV
Kind of experiment: cell-based or functional assay.

Another experiment concerns the target T2, Human CD39 antigen (human, UniProt P49961 38-478).
T2 construct: Antigen used as analyte in SPR; also called ENTPD1
T2 sequence (looked up): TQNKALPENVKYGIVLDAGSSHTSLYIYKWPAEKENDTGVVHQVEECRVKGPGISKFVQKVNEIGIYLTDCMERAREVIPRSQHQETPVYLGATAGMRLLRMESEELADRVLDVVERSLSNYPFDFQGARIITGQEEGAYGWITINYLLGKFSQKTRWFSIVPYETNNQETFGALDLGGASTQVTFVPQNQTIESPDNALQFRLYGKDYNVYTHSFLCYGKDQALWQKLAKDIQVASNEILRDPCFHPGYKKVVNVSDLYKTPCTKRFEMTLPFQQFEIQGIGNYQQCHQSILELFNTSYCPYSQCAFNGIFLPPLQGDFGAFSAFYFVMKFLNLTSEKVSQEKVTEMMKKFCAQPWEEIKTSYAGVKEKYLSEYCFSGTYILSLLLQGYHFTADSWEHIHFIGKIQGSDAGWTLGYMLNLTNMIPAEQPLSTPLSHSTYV
Kind of experiment: SPR (Biacore 8K), antibody captured on anti-human capture CM5 chip, antigen as analyte, 1:1 model. Here is the method:
(§1) An Anti-Human Capture-CM5 chip (GE, #BR-1005-30) was prepared using coupling methods of a Human Antibody Capture Kit (GE, #BR-1008-39) and an amino coupling kit (GE, BR-1000-50). The chip was equilibrated at room temperature for 20-30 mins and loaded into a Biacore 8K instrument. The antigen and antibody were diluted to an experimental working concentration using an equilibration buffer. The antigens were diluted with the equilibrium buffer to 50 nM, and then diluted three-fold for seven concentration gradients, and two zero concentrations (i.e., the equilibrium buffer) and one repeat concentration (typically the lowest concentration repeat) were set. Experimental analysis was performed on 10 antigen concentrations (2 zero concentrations, 7 gradient concentrations, and 1 repeated concentration) in a cyclic manner according to an order of antibody, antigen, and regeneration. The antigen injection flow rate was 30 μL/min, the binding time was 120 s, and the dissociation time was 600 s. Following the analysis, the data was analyzed using the corresponding analysis program to confirm that there was no obvious reference binding. Using Kinetics and a 1:1 binding model, the data was fit to obtain the kinetic related parameters Ka, Kd, and KD values of the bispecific antibodies and parental control antibodies.

The next experiment has as its target T3, Human CD73 antigen (human, UniProt P21589 27-547, limits assumed).
T3 construct: Antigen used as analyte in SPR; also called NT5E
T3 sequence (looked up): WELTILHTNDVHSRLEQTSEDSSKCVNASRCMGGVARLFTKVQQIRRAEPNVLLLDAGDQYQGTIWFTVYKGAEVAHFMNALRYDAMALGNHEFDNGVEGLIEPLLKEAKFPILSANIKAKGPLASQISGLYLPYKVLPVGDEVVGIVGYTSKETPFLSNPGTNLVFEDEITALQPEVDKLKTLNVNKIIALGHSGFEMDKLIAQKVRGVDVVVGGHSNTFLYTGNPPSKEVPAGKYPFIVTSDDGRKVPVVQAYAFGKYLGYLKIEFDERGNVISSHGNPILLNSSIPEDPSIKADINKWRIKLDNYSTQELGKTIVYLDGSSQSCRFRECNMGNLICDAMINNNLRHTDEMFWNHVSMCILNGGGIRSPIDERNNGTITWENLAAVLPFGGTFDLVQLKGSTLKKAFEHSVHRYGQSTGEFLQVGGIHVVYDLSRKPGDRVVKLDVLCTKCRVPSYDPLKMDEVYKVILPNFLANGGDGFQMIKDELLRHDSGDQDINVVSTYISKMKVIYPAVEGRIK
Described as above. The method, then: as §1

In experiment [2] the target is soluble recombinant protein CD73. Kind of experiment: cell-based or functional assay.
The target in experiment [3] is T4, Human CD73 on CHOK1-huCD73-3F4 cells overexpressing CD73 (human, UniProt P21589 27-549).
T4 sequence (looked up): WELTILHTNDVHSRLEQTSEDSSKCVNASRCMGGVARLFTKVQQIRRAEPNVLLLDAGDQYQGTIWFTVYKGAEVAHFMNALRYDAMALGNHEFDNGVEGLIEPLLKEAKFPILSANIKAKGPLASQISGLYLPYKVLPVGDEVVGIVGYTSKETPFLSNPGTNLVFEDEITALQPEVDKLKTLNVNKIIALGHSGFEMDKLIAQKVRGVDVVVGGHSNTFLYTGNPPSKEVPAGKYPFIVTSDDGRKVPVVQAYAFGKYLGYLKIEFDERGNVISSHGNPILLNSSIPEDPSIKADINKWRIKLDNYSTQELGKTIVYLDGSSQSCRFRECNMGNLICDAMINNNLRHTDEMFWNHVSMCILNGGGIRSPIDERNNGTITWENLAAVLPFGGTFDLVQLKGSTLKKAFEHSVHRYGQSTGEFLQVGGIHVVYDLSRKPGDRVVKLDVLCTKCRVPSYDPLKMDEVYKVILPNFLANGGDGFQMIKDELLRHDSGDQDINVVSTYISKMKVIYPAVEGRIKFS
Kind of experiment: cell-based or functional assay.

Consider three molecules from patent US20250361314A1 (SHANGHAI HUAOTA BIOPHARMACEUTICAL, published 2025).

As usually defined, the Kd is a measure of binding affinity in units of concentration. A low value points to a tighter complex. Broadly, the koff is the rate constant with which the complex falls apart. A low value points to slow dissociation. Usually kon stands for the rate constant with which the complex forms. Lower therefore signals slower complex formation.

Sequence of soluble recombinant protein CD73 (P21589 whole entry): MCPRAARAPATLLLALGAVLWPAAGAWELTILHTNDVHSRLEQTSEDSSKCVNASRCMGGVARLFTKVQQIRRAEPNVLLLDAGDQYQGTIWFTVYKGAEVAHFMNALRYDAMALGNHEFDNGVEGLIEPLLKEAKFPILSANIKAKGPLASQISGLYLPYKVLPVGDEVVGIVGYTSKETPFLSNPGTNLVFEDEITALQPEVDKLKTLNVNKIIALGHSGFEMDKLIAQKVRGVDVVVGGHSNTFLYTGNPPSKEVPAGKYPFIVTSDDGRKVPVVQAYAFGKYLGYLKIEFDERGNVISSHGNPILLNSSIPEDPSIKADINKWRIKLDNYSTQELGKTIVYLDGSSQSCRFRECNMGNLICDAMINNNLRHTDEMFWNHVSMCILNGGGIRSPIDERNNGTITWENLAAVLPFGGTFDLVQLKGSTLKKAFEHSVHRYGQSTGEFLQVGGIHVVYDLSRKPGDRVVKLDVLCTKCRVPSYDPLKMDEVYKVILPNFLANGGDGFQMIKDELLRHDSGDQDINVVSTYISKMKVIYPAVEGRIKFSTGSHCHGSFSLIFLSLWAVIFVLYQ

B1: 700053 (CD39 nanobody) (VHH)
VHH: QVQLVESGGGLVQPGGSLRLSCAASGSISSIAAMGWYRQAPGKERELVAAITSGGNTNLADSTKGRFTISRDNTKNTVYLQMNSLKPEDTAVYYCNAWGEDDSSWFGTDLCDYWGQGTQVTVSS
notes: In the SPR it was captured on an anti-human antibody capture chip, so the tested construct may carry a human Fc
Take B1: the “EC50 (µg/mL), inhibition of CD39 ATPase activity on CHOK1-huCD39-10B6 cells (CellTiter Glo)” value in experiment [1] came out at 0.558 µg/mL. Besides, in the experiment with Human CD39 antigen, the Kd worked out at 0.14 nM, the koff stood at 0.000102 s⁻¹ and the kon was found to be 730000 M⁻¹ s⁻¹.

B2: 900698 (CD73 parental monoclonal antibody corresponding to 700038) (antibody, human IgG1, kappa, L234A L235A, V domains shown)
VH: QVQLVESGGGLVKPGGSLRLSCAASGFTFSKYAMSWIRQAPGKGLEWVAEISSGGGYINYADSVKGRFTISRDNAKNSLYLQMNSLRAEDTAVYYCARAIYYYGSSYNYYAMDYWGQGTTVTVSS
VL: DIQMTQSPSSLSASVGDRVTITCRASQDVGTAEAWYQQKPGKAPKLLIYWASTRHTGVPSRFSGSGSGTDFTLTISSLQPEDFATYYCQQYSSYPLTFGQGTKLEIKR
In the experiment with Human CD73 antigen, B2 yielded a Kd of 0.382 nM, a koff of 0.000215 s⁻¹ and a kon of 561000 M⁻¹ s⁻¹. Further, in experiment [2], the “EC50 (µg/mL), inhibition of enzyme activity of soluble CD73 protein (CellTiter Glo)” value was 1.74 µg/mL.

B3: 900725 (CD73 parental monoclonal antibody corresponding to 700035) (antibody, human IgG1, kappa, L234A L235A, V domains shown)
VH: QVQLVQSGAEVKKPGASVKLSCKASGYTFTSYWIHWVRQAPGQGLEWIGMIHPNSGSTYYNEKFKGRATLTVDKSTSTAYMELSSLRSEDTAVYYCARYYGSDYEWYFDVWGQGTTVTVSS
VL: DIQMTQSPSSMSASVGDRVTITCKASQNVRTAVVWYQQKPGKAPKALIYLASNRHTGVPDRFSGSGSGTDFTLTISSLQPEDFATYFCLQHWNYPYTFGQGTKLEIKR
Regarding B3, in the experiment with Human CD73 antigen, binding was put at a Kd of 0.184 nM, the koff stood at 0.000182 s⁻¹ and the kon worked out at 988000 M⁻¹ s⁻¹. Besides, in experiment [3], the “EC50 (µg/mL), inhibition of enzyme activity of membrane CD73 on CHOK1-huCD73-3F4 cells (CellTiter Glo)” value turned out to be 0.32 µg/mL.
